The values below come from US20050255547A1.

In the assay the target is oligomerized FasL. Nature of the assay: cell-based or functional assay.

Fas-COMP (receptor): the inhibition of FasL-induced apoptosis of A20 cells (IC50) was 0.035 µg/mL.

Substance Fas-Fc (Fc fusion) displayed an inhibition of FasL-induced apoptosis of A20 cells (IC50) greater than 1 µg/mL.

FasR:mACRP30 (receptor) had an inhibition of FasL-induced apoptosis of A20 cells (IC50) of 0.08 µg/mL.
